Test [1] has as its target T1, DDB1·CRBN precomplexed with pomalidomide (human, UniProt Q96SW2 1-442; Q16531 1-1140).
T1 construct: also called CRBN·pomalidomide
Kind of test: bio-layer interferometry, immobilized MBP-degron, DDB1·CRBN precomplexed with pomalidomide.

The target of test [2] is T1, DDB1·CRBN precomplexed with pomalidomide. Kind of test: BLI, immobilized MBP-degron, DDB1·CRBN precomplexed with pomalidomide.
The target in test [3] is T2, DDB1·CRBN precomplexed with PT-179 (human, UniProt Q96SW2 1-442; Q16531 1-1140). Kind of test: bio-layer interferometry, immobilized MBP-degron, DDB1·CRBN precomplexed with PT-179. (In general: BLI is a label-free optical method that tracks binding on a fibre tip over time.)
T2 sequence (Q96SW2 whole entry, chain 1 of 2): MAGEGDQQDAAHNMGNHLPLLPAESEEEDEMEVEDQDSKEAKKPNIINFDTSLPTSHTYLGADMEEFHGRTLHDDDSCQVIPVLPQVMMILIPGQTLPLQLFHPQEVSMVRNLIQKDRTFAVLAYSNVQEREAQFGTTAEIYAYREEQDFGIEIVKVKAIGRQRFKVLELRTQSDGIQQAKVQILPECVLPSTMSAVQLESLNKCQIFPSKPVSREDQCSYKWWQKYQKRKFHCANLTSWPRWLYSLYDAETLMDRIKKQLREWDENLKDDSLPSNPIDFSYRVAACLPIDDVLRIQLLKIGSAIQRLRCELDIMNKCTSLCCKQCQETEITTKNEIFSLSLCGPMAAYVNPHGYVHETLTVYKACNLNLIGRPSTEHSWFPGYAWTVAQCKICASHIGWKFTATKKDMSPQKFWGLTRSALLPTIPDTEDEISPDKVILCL
T2 sequence (Q16531 whole entry, chain 2 of 2): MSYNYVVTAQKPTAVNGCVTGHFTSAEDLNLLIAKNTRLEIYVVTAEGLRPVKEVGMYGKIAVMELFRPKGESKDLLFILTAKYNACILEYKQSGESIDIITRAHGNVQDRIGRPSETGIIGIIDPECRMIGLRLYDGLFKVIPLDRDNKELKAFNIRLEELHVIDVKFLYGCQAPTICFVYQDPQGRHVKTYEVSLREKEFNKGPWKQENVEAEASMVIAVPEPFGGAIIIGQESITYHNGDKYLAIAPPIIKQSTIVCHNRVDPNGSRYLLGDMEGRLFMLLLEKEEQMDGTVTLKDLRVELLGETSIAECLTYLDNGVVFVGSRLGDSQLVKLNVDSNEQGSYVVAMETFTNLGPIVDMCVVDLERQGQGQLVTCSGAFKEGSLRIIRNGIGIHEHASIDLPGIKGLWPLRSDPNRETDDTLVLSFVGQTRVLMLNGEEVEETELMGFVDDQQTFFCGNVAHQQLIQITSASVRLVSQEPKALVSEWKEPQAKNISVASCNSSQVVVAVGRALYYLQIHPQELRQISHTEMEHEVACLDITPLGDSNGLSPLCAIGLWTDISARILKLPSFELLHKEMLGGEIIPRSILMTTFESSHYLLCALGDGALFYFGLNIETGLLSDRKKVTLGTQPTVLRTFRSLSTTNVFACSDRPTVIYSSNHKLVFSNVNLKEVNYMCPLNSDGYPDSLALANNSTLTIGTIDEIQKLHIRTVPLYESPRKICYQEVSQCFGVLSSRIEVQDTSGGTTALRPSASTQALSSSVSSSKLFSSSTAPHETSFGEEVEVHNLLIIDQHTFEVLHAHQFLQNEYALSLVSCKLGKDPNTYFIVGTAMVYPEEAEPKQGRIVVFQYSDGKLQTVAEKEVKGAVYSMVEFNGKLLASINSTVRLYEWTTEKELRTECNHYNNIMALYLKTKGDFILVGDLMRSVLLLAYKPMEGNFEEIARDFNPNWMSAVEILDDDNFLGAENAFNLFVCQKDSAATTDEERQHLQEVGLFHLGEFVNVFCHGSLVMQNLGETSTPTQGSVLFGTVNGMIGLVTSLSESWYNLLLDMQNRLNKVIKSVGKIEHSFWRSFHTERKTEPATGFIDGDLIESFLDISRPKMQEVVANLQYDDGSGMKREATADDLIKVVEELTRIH
Test [4] deals with T2, DDB1·CRBN precomplexed with PT-179. Kind of test: BLI, immobilized MBP-degron, DDB1·CRBN precomplexed with PT-179.
Test [5] has the same target. Kind of test: BLI, immobilized MBP-degron; ratio of the KD values.

Where no end group is shown, it is not given here.

T1 sequence (Q96SW2 whole entry, chain 1 of 2): as the sequence (Q96SW2 whole entry, chain 1 of 2) above
T1 sequence (Q16531 whole entry, chain 2 of 2): as the sequence (Q16531 whole entry, chain 2 of 2) above

B1: MBP-SD0 (super degron SD0 fused to maltose binding protein) (designed binder, not shown: large carriers)
chain: FNVLMVHKRSHTGERPLQCEICGFTCRQKGNLLRHIKLHTGEKPFKCHLCNYACQRRDAL
notes: also called MBP-degron
By koff is commonly meant the first-order rate constant of dissociation. Low readings indicate a long-lived complex, high ones a short-lived complex. For orientation: kon means the rate constant with which the complex forms. A high value points to fast association. By Kd is commonly meant the constant that tells how readily two partners part at equilibrium. Lower therefore signals higher affinity. Consider B1, for which, in test [1], the koff came out at 0.0509 s⁻¹ and the kon came to 235000 M⁻¹ s⁻¹. Moreover, in test [2], the Kd is 217 nM.

B2: MBP-SD40 (minimal evolved degron SD40 fused to maltose binding protein) (designed binder, not shown: large carriers)
chain: LLLFCPICGFTCRQKGNLLRHINLHTGEKLFKYHLY
modifications: cysteine pairing not given here; also: fused to maltose binding protein, limits and linker not given here
notes: Expressed and purified from E. coli, immobilized for BLI; also called MBP-degron
Take B2: the koff in test [1] is 0.0161 s⁻¹; in test [3] it was 0.00528 s⁻¹. Besides, the values for the kon in test [1] and in test [3] were 54600 M⁻¹ s⁻¹ and 42900 M⁻¹ s⁻¹, respectively. Moreover, the Kd in test [2] turned out to be 295 nM; in test [4], 123 nM. Moreover, the “fold preference for CRBN precomplexed with PT-179 over CRBN precomplexed with pomalidomide” value in test [5] stood at 2.4 fold.

The values are drawn from patent US20250109177A1 (BROAD INSTITUTE, published 2025).
